2 molecules from US20110123533A1 can be followed below.

Test [1] addresses T1, CD133 (prominin) (human) (UniProt O43490).
T1 sequence (glycosylated (the AC133 epitope is known to be glycosylated), looked up): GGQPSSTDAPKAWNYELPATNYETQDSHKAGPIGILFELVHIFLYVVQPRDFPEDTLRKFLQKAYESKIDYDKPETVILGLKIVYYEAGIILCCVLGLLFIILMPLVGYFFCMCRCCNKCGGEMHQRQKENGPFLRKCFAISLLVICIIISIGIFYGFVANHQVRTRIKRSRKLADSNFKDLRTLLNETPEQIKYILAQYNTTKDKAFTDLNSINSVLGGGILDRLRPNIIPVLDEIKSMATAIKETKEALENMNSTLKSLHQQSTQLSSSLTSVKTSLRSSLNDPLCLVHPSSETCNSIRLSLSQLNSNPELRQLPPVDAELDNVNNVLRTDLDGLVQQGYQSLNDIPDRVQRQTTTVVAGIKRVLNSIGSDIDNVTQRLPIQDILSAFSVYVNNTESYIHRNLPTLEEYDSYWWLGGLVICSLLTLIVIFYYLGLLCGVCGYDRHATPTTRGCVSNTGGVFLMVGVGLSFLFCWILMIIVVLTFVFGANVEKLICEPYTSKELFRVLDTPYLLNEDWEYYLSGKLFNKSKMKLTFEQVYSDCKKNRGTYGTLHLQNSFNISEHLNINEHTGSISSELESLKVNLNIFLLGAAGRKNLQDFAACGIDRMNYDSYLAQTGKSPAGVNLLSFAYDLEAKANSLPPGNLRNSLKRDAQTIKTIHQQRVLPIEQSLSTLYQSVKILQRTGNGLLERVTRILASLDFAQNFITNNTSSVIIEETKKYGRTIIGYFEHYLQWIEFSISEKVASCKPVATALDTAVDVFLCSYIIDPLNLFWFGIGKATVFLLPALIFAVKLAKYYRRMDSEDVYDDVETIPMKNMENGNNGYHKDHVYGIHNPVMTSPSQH
Briefly: ELISA on plasma membrane fraction of Caco-2 cells; relative equilibrium constant.

In test [2] the target is T1, CD133 (prominin) (human). Briefly: ELISA on membrane fraction of Caco-2 cells.
The target of test [3] is T1, CD133 (prominin) (human). Briefly: ELISA on membrane fraction from Caco-2 cells.

On to scFv-AC133, for which the Kd in the test with CD133 (prominin) (human) [1] is 155 nM. In the test with CD133 (prominin) (human) [2], the fold lower relative binding affinity than anti-CD133 monoclonal antibody is 2 fold. In the test with CD133 (prominin) (human) [3], this molecule gave a fold lower affinity than the monoclonal antibody from which the scFv was derived of 3 fold.

B1: AC133 mouse monoclonal antibody purified from hybridoma (antibody, from another filing, V domains shown)
VH: QVQLQQSGAELVRPGASVKLSCKASGYTFSDFEMHWVKQTPVHGLEWIGDIDPGTGDTAYNLKFKGKATLTTDKSSSTAYMELRSLTSEDSAVYYCTLGAFVYWGQGTLVTVSA
VL: DVVVTQTPLSLPVSFGDQVSISCRSSQSLANSYGNTYLSWYLHKPGQSPQLLIYGISNRFSGVPDRFSGSGSGTDFTLKISTIKPEDLGMYYCLQGTHQPYTFGGGTKLEIKR
Turning to B1, the Kd with CD133 (prominin) (human) [1] amounted to 83 nM.
